B1: SsGDH (Saccharolobus solfataricus) (protein)
chain: MKAIIVKPPNAGVQVKDVDEKKLDSYGKIKIRTIYNGICGTDREIVNGKLTLSTLPKGKDFLVLGHEAIGVVEESYHGFSQGDLVMPVNRRGCGICRNCLVGRPDFCETGEFGEAGIHKMDGFMREWWYDDPKYLVKIPKSIEDIGILAQPLADIEKSIEEILEVQKRVPVWTCDDGTLNCRKVLVVGTGPIGVLFTLLFRTYGLEVWMANRREPTEVEQTVIEETKTNYYNSSNGYDKLKDSVGKFDVIIDATGADVNILGNVIPLLGRNGVLGLFGFSTSGSVPLDYKTLQEIVHTNKTIIGLVNGQKPHFQQAVVHLASWKTLYPKAAKMLITKTVSINDEKELLKVLREKEHGEIKIRILWE
notes: details only in supplement
B2: ScG6PDH (Saccharomyces cerevisiae S288C) (protein)
chain: SEGPVKFEKNTVISVFGASGDLAKKKTFPALFGLFREGYLDPSTKIFGYARSKLSMEEDLKSRVLPHLKKPHGEADDSKVEQFFKMVSYISGNYDTDEGFDELRTQIEKFEKSANVDVPHRLFYLALPPSVFLTVAKQIKSRVYAENGITRVIVEKPFGHDLASARELQKNLGPLFKEEELYRIDHYLGKELVKNLLVLRFGNQFLNASWNRDNIQSVQISFKERFGTEGRGGYFDSIGIIRDVMQNHLLQIMTLLTMERPVSFDPESIRDEKVKVLKAVAPIDTDDVLLGQYGKSEDGSKPAYVDDDTVDKDSKCVTFAAMTFNIENERWEGVPIMMRAGKALNESKVEIRLQYKAVASGVFKDIPNNELVIRVQPDAAVYLKFNAKTPGLSNATQVTDLNLTYASRYQDFWIPEAYEVLIRDALLGDHSNFVRDDELDISWGIFTPLLKHIERPDGPTPEIYPYGSRGPKGLKEYMQKHKYVMPEKHPYAWPVTKPEDTKDN
notes: details only in supplement
B3: LmG6PDH (Leuconostoc mesenteroides) (protein)
chain: VSEIKTLVTFFGGTGDLAKRKLYPSVFNLYKKGYLQKHFAIVGTARQALNDDEFKQLVRDSIKDFTDDQAQAEAFIEHFSYRAHDVTDAASYAVLKEAIEEAADKFDIDGNRIFYMSVAPRFFGTIAKYLKSEGLLADTGYNRLMIEKPFGTSYDTAAELQNDLENAFDDNQLFRIDHYLGKEMVQNIAALRFGNPIFDAAWNKDYIKNVQVTLSEVLGVEERAGYYDTAGALLDMIQNHTMQIVGWLAMEKPESFTDKDIRAAKNAAFNALKIYDEAEVNKYFVRAQYGAGDSADFKPYLEELDVPADSKNNTFIAGELQFDLPRWEGVPFYVRSGKRLAAKQTRVDIVFKAGTFNFGSEQEAQEAVLSIIIDPKGAIELKLNAKSVEDAFNTRTIDLGWTVSDEDKKNTPEPYERMIHDTMNGDGSNFADWNGVSIAWKFVDAISAVYTADKAPLETYKSGSMGPEASDKLLAANGDAWVFKG
notes: details only in supplement

Tests used:
[1] = substrate: NC(=O)c1ccc[n+]([C@@H]2C[C@H](COP(=O)(O)OP(=O)(O)OC[C@H]3O[C@@H](n4cnc5c(N)ncnc54)[C@H](OP(=O)(O)O)[C@@H]3O)[C@@H](O)[C@H]2O)c1; assay: steady-state kinetics; type: biochemical, Saccharolobus solfataricus; conditions: sugar oxidation; D-glucose activity about half of that with NADP+; varied: cofactor
Source text: (§1) steady-state kinetics on SsGDH | Looking deeper into the kinetic parameters of a selection of five enzymes | decreased Michaelis constant (K m) for the biomimetic for most of the enzymes

[2] = substrate: NC(=O)c1ccc[n+]([C@@H]2O[C@H](COP(=O)(O)OP(=O)(O)OC[C@H]3O[C@@H](n4cnc5c(N)ncnc54)[C@H](OP(=O)(O)O)[C@@H]3O)[C@@H](O)[C@H]2O)c1; assay: steady-state kinetics; type: biochemical, Saccharolobus solfataricus; conditions: sugar oxidation; natural cofactor; varied: cofactor
Source text: as §1

[3] = substrate: NC(=O)c1ccc[n+]([C@@H]2C[C@H](COP(=O)(O)OP(=O)(O)OC[C@H]3O[C@@H](n4cnc5c(N)ncnc54)[C@H](OP(=O)(O)O)[C@@H]3O)[C@@H](O)[C@H]2O)c1; assay: purified protein, by the assay type; parameters: Spectrophotometric steady-state kinetics with varied oxidised cofactor in 96-well plates; conditions: pH 8.0
Source text: (§2) 12 cofactor concentrations of both cofactors ([NADP+ ] or [cNADP+ ]) x 2 (duplicates) = 48 reaction mixtures The enzyme concentration [E] as well as the buffer concentration [buffer] and the measurement conditions ( such as temperature of measurement (Tmeasure); volume (V), preheating time (theat), sequence of process steps (pipetting, preheating, addition of enzyme and measurement) were kept constant for the measurements of a kinetic. The reaction mixtures were pipetted in MTPs with the help of LHS, followed by preheating of the mixture and addition of 25 µL of enzyme solution was added with an electric MCP in multi-dispense mode, and measurement in an Epoch 2 - BioTek photometer. […] Detailed values of concentrations and reaction conditions can be found in the corresponding figures and their discriptons. SUPPORTING INFORMATION S5 Enzymatic activity measurements for NADP+ and carba-NADP+ All assays were performed in 96-well MTP plates in a reaction volume of 200 µL. Reactions were started by adding the enzyme. A detailed overview is given in (Table 2) showing the preferred reaction, the acceptance towards both cofactors (NADP(H) and carba-NADP(H)) and further reaction conditions. For all reactions, multiple negative reactions, were performed without adding a cofactor, enzyme or substrate, respectively. Production of carba-NADP+ The cofactor carba-NADP+ was prepared according to literature(WO 2011/012270 A1) by means of chemical and biocatalytical methods.[2] […] Reaction was followed spectrophotometrically. After full reduction, SsGDH was removed using a centrifugal filter with 10 kDa cut-off. The reduced cofactor was stored at -80 °C until further use. 10 mM stock was diluted 1:10 within the final reaction mixture. Biocatalytic approaches using (carba)-NADPH thus contained 2 mM glucose, 1 mM gluconic acid and 0.2 mM Tris-HCl as contaminants.

[4] = substrate: NC(=O)c1ccc[n+]([C@@H]2O[C@H](COP(=O)(O)OP(=O)(O)OC[C@H]3O[C@@H](n4cnc5c(N)ncnc54)[C@H](OP(=O)(O)O)[C@@H]3O)[C@@H](O)[C@H]2O)c1; assay: purified protein, by the assay type; parameters: Spectrophotometric steady-state kinetics with varied oxidised cofactor in 96-well plates; conditions: pH 8.0
Source text: as §2

Row | Protein | Km [1] [µM] | kcat [1] [s⁻¹] | Km [2] [µM] | kcat [2] [s⁻¹] | Km [3] [µM] | Vmax [3] [µmol/min/mg] | kcat [3] [s⁻¹] | kcat/Km [3] [M⁻¹ s⁻¹] | Km [4] [µM] | Vmax [4] [µmol/min/mg] | kcat [4] [s⁻¹] | kcat/Km [4] [M⁻¹ s⁻¹]
1 | B1 | 10 | 1.0 | 80 | 2.25 | – | – | – | – | – | – | – | –
2 | B2 | – | – | – | – | 26 | 14 | 13.4 | 516000 | 157 | 245 | 235 | 1.5e+06
3 | B3 | – | – | – | – | 27 | 45 | 40.7 | 1.51e+06 | 75 | 166 | 150 | 2e+06
